Five molecules from patent US20250333506A1 (NEW YORK UNIVERSITY, published 2025) can be followed below.

Experiment [1] deals with T1, cynomolgus Gamma/Delta1A TCR-Fc fusion protein (cynomolgus monkey, biotinylated in vitro with recombinant BirA (AviTag)).
T1 construct: First chain = delta, second = gamma; also called Cyno D1; cyno D1; not shown: Fc portion of mouse IgG, then AviTag and His6 tag at the C-terminus; Fc portion of mouse IgG
Description: bead binding assay (TCR-Fc on streptavidin beads, IgG titrated, flow cytometry); apparent KD. A general note: Flow cytometry measures light scatter and fluorescence of single cells or particles in a stream.

For experiment [2], the target named is T2, Cyno D2 (biotinylated (AviTag)).
T2 construct: also called cynomolgus Gamma/Delta2; Cyno D2/G
T2 delta chain: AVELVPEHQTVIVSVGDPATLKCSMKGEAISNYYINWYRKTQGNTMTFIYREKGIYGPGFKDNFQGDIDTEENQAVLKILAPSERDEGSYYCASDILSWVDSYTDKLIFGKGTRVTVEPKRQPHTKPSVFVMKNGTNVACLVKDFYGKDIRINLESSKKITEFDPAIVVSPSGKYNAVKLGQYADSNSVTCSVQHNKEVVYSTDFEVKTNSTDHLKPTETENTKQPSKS
T2 gamma chain: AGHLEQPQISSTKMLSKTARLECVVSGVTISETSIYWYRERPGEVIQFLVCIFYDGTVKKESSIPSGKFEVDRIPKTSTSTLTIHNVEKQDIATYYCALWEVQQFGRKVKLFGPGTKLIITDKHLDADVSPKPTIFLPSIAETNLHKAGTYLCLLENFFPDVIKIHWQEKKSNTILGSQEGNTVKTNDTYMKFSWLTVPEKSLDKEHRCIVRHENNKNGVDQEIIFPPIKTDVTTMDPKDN
Description: bead binding assay: biotinylated TCR-Fc on streptavidin beads, IgG titrated, flow cytometry.

In experiment [3] the target is T2, Cyno D2. The description is as above.
Experiment [4] has as its target T1, cynomolgus Gamma/Delta1A TCR-Fc fusion …. Description: bead binding assay (TCR-Fc on streptavidin beads, IgG titrated, flow cytometry); apparent KD, s.d. of triplicates.
Experiment [5] deals with T2, Cyno D2. Description: bead binding assay: biotinylated TCR-Fc on streptavidin beads, IgG titrated, flow cytometry.
In experiment [6] the target is T2, Cyno D2. The experiment is described as above.
The target of experiment [7] is T3, human Delta1 TCR (Fc fusion protein, Delta1 clone and gamma chain not stated).
T3 construct: also called Human Delta1 Fc fusion protein; human delta-1 chain
Description: bead binding titration, flow cytometry (MFI against antibody concentration).

Experiment [8] deals with T1, cynomolgus Gamma/Delta1A TCR-Fc fusion …. Description: bead binding assay: biotinylated TCR-Fc on streptavidin beads, IgG titrated, flow cytometry.
For experiment [9], the target named is T4, cell surface-expressed δ1-γ5 TCR on J.RT3-T3.5 Jurkat cells.
T4 construct: whole, on cells; also called Delta1 and gamma 5
Description: flow cytometry titration on the D1/G5 TCR Cell Line (AB Hi), transduced J.RT3-T3.5 Jurkat cells.

The target in experiment [10] is T5, cell surface-expressed δ1-γ8 TCR on J.RT3-T3.5 Jurkat cells.
T5 construct: whole, on cells; also called Delta1 and gamma 8
Description: flow cytometry titration on the D1/G8 TCR Cell Line (9-2 Hi), transduced J.RT3-T3.5 Jurkat cells.

Experiment [11] has as its target T6, cell surface-expressed δ1-γ9 TCR on J.RT3-T3.5 Jurkat cells.
T6 construct: whole, on cells; also called Delta1/Gamma9 TCR on the surface; delta1/gamma-9
Description: flow cytometry titration on the D1/G9 TCR Cell Line (JR2 Hi), transduced J.RT3-T3.5 Jurkat cells.

The target in experiment [12] is T7, cell surface-expressed δ1γ2 TCR on J.RT3-T3.5 Jurkat cells.
T7 construct: whole, on cells; Cells were stained with anti-human reagents; species of the transduced chains is not restated; also called Delta1 and gamma 2
Description: flow cytometry titration on the D1/G2 TCR Cell Line (9-10 Hi), transduced J.RT3-T3.5 Jurkat cells.

Experiment [13] deals with T8, cell surface-expressed δ1γ3 TCR on J.RT3-T3.5 Jurkat cells.
T8 construct: whole, on cells; also called Delta1 and gamma 3
Description: flow cytometry titration on the D1/G3 TCR Cell Line (16-3 Hi), transduced J.RT3-T3.5 Jurkat cells.

Experiment [14] concerns the target T9, cell surface-expressed δ1-γ4 TCR on J.RT3-T3.5 Jurkat cells.
T9 construct: whole, on cells; also called Delta1 and gamma 4; delta1/gamma-4
Description: flow cytometry titration on the D1/G4 TCR Cell Line (DP10 Hi), transduced J.RT3-T3.5 Jurkat cells.

In experiment [15] the target is T3, human Delta1 TCR (Fc fusion protein, …). Description: bio-layer interferometry (Octet), biotinylated receptor on streptavidin sensor tips, antibody in solution; KD Error 1.14e-012.
Experiment [16] addresses T10, cynomolgus monkey Delta1 Fc fusion protein (Delta1 clone not stated).
T10 construct: also called monkey (cyno) delta-1 chain; monkey Delta1 receptors
Description: bio-layer interferometry (Octet), biotinylated receptor on streptavidin sensor tips, antibody in solution; KD Error 1.33e-012.

The target of experiment [17] is T1, cynomolgus Gamma/Delta1A TCR-Fc fusion …. Description: bead binding assay by the table's title (paragraph 456 gives the same value for Octet BLI, FIG. 22B); apparent KD; apparent KD, IgG format, bead binding assay; measured once. A general note: Biolayer interferometry detects binding as a change in optical thickness at a sensor tip.

Where a chain is given by its changes, count along the chain named. Like-named read-outs stand apart in the source and are kept apart here.

The term EC50 (read off the curve) denotes the concentration giving half of the maximal effect.

B1: Delta1-24 (antibody, V domains shown)
VH: EVQLVESGGGLVQPGGSLRLSCAASGFTVSSSSIHWVRQAPGKGLEWVASIYSSSGYTYYADSVKGRFTISADTSKNTAYLQMNSLRAEDTAVYYCARDPGSYYWYYSGSAYEGYGLDYWGQGTLVTVSS
VL: DIQMTQSPSSLSASVGDRVTITCRASQSVSSAVAWYQQKPGKAPKLLIYAASSLQSGVPSRFSGSRSGTDFTLTISSLQPEDFATYYCQQSNRSYPPLTFGQGTKVEIKR
notes: Tested in the human IgG format
Regarding B1, the Kd in [1] worked out at 1.16 nM. Besides, the binding result with Cyno D2 [2] was “no binding (tested: 100 nM)”.

B2: Delta1-22 (antibody, V domains shown)
VH: B1 VH
VL: B1 VL with S91R, N92S, S94Y, P96S, P97L, L98I
notes: as for B1
On to B2, for which the binding result with Cyno D2 [3] was “no binding (tested: 100 nM)”. In [4], the Kd turned out to be 0.61 nM.

B3: Delta1-25 (antibody, V domains shown)
VH: B1 VH
VL: B1 VL with S91I, N92G, S94R, Y95S, P96S, P97L, L98I
notes: as for B1
For B3, in the experiment with Cyno D2 [5], the binding result is “no binding (tested: 100 nM)”. Moreover, the Kd in [4] was 0.48 nM.

B4: Delta1-26 (antibody, V domains shown)
VH: B1 VH
VL: B1 VL with S91Q, N92Q, S94Y, Y95S, P96Y, P97L, L98I
notes: as for B1
As to B4, the binding result with Cyno D2 [6] is recorded as “no binding (tested: 100 nM)”. Further, the Kd in experiment [4] turned out to be 0.26 nM.

B5: Delta1-39 (antibody, V domains shown)
VH: B1 VH with V29F, S30T, S31A, S32N, S33D
VL: B1 VL with S91Q, N92S, R93K, S94Y, Y95P, P96F, P97L, L98I
notes: Tested in the human IgG format; also called anti-Delta1-39; Delta-39
With B5, the 50% effective concentration (EC50 (read off the curve)) is around 1 nM in [7]; around 2 nM in experiment [8]; around 4 nM in [9]; around 6 nM in [10]; around 10 nM in [11]; around 7 nM in experiment [12]. The figures for the “EC50 (read off the curve)” value in [13] and in experiment [14] were around 6 nM and around 9 nM, respectively. The results for the Kd in experiment [15], in [16] and in experiment [17] were 0.231 nM, 0.285 nM and 0.28 nM, respectively.
